Experimental data reported in patent publication US20200282021A1 (published 2020).

T1: human GLP-1 receptor (Abcam) (human, UniProt P43220 24-145)
T1 chain: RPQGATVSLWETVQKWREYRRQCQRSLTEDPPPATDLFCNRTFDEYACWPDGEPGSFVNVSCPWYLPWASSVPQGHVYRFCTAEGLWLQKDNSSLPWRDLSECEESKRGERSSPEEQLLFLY

B1: GLP-1 receptor (receptor)
chain: T1 chain
B2: GLP-1(A2G)-hyFc9 (Fc fusion)
chain: HGEGTFTSDVSSYLEGQAAKEFIAWLVKGRGAKATTAPATTRNTGRGGEEKKKEKEKEEQEERETKTPECPSHTQPLGVFLFPPKPKDTLMISRTPEVTCVVVDVSQEDPEVQFNWYVDGVEVHNAKTKPREEQFNSTYRVVSVLTVLHQDWLNGKEYKCKVSNKGLPSSIEKTISKAKGQPREPQVYTLPPSQEEMTKNQVSLTCLVKGFYPSDIAVEWESNGQPENNYKTTPPVLDSDGSFFLYSRLTVDKSRWQEGNVFSCSVMHEALHNHYTQKSLSLSLGK
modifications: O-glycosylation at the IgD hinge region (positions not stated)

Assays:
[1] = target: Dulaglutide; test: BLI
[2] = target: T1, human GLP-1 receptor (Abcam); test: BLI

Binder	Kd [1]	Kd [2]
B1	0.395 µM	
B2		45 µM
